According to patent CN112142841A (JIANGSU QUANXIN BIOMEDICAL CO LTD, dated 2020):

Tests used:
[1] = target: T1, 人IL-17A (His-tag，购自Novoprotein) (human, UniProt Q16552 24-155); assay: ELISA: antibody coated, serially diluted His-tagged human IL-17A, anti-His-HRP detection
T1 construct: Bought His-tagged protein, detected with an HRP-labelled anti-His antibody; also called human IL-17A; hIL-17A; not shown: His-tag
T1 sequence (looked up): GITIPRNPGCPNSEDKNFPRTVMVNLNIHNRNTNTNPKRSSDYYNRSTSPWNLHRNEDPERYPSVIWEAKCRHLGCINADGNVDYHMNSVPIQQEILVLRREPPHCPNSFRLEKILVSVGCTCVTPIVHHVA

[2] = target: T2, 人IL-17A蛋白 (Example 4, sandwich ELISA) (human, UniProt Q16552 24-155); assay: sandwich ELISA: QX002N coated, human IL-17A 0-10 ng/ml, biotin-labelled second antibody for detection, SA-HRP
T2 construct: also called 重组人IL-17A蛋白标准品; recombinant human IL-17A protein standard
T2 sequence (looked up): T1 sequence (looked up)

B1: 抗人IL-17A单克隆抗体 (anti-human IL-17A monoclonal antibody) (antibody, V domains shown)
VH: QSLEESGGDLVQPEGSLALTCKASGFDLSSYYYMCWVRQAPGKGLEWIACIHTGNGYPYYANWAKGRFTISKTSSTTVTLQLTSLTVADTATYFCARPVGGYDYAMDLWGPGTLVTVSS
VL: AYDMTQTPASVSAAVGGTVTINCQASEDISSQLSWYQQRPGQPPKLLIYKASTLASGVPSRFRGSGSGTQFTLTISGVQCADAATYYCQQSASYFNVANTFGGGTEVVVKG
notes: also called 第二抗体; 检测抗体
[1]
  binding result: binds
[2]
  binding result: binds
